We go through 2 substances from paper PMC2928010.

Assay [1] has as its target RNC–SRP: coumarin-labeled SRP C235 loaded with ribosome–nascent chain complex (E. coli) (UniProt P0AGD7). The assay can be described thus: FRET or BRET. Background: BRET reads energy transfer from a luciferase to a nearby fluorophore.
The target is the same in assay [2]. Nature of the assay: FRET or BRET. This is another data set of the same source.
In assay [3] the target is acrylodan-labeled FtsY C356 (E. coli) (UniProt P10121). The assay can be described thus: other fluorescence titration.
The target is the same in assay [4]. The assay can be described thus: other fluorescence titration. This is another data set of the same source.

Read-outs that look alike come from different tables or passages of the source.

Usually Kd stands for the constant that tells how readily two partners part at equilibrium. Low values mean tighter binding, high ones weaker binding. “BODIPY-fluorescein–labeled FtsY C487 (from UniProt P10121 1-497) (receptor)”: the Kd in assay [1] was 104 nM; in assay [2], 68 nM.
On to “signal recognition particle (SRP): Ffh with 4.5S RNA (from UniProt P0AGD7 1-453) (complex)”, for which the Kd in assay [3] was 145 nM; in assay [4] it was < 4 nM.
